Key:
Settings in all cases: other: pH 7, 37° C., 0.25 mM NADH
[1] = substrate: O=C(O)CC(=O)C(=O)O; test: OHB/oxaloacetate reductase assay (NADH oxidation at 340 nm), Ec-Mdh wild type; assay type: biochemical, Escherichia coli
From the text: (§1) The genes coding for (L)-malate dehydrogenase in Escherichia coli, Ec-mdh (SEQ ID NO: 1), (D)-lactate dehydrogenase in E. coli, Ec-ldhA (SEQ ID NO: 3), (L)-lactate dehydrogenase of Lactococcus lactis, Ll-ldhA (SEQ ID NO: 5), (L)-lactate dehydrogenase of Bacillus subtilis, Bs-ldh (SEQ ID NO: 7), (L)-lactate dehydrogenase of Geobacillus stearothermophilus, Gs-ldh (SEQ ID NO: 9), the two isoforms of the (L)-lactate dehydrogenase of Oryctalagus cuniculus, Oc-ldhA (SEQ ID NO: 11 and SEQ ID NO: 13), were amplified by PCR using the high-fidelity polymerase Phusion™ (Fermentas) and the primers listed in Table 1. Genomic DNAs of E. coli MG1655, L. lactis IL1403, and B. subtilis strain 168 were used as the template. The genes Oc-ldhA, and Gs-ldh were codon-optimized for expression in E. coli and synthesized by MWG Eurofins. The primers introduced restriction sites (Table 1) upstream of the start codon and downstream of the stop codon, respectively, facilitating the ligation of the digested PCR products into the corresponding sites of the pET28a+ (Novagen) expression vector using T4 DNA ligase (Fermentas). Ligation products were transformed into E. coli DH5a cells (NEB). […]

[2] = substrate: O=C(O)C(=O)CCO; test: OHB/oxaloacetate reductase assay, Ec-Mdh R81A M85Q I12V; assay type: biochemical, Escherichia coli
Method: (§2) Enzymatic assays: The reaction mixture contained 60 mM Hepes (pH 7), 50 mM potassium chloride, 5 mM MgCl2, 0.25 mM NADH, (optionally 5 mM fructose-1,6-bisphosphate) (all products from Sigma), and appropriate amounts of purified malate or lactate dehydrogenase or cell extract. Reactions were started by adding appropriate amounts of 2-oxo-4-hydroxybutyrate (OHB), pyruvate, or oxaloacetate (OAA). Enzymatic assays were carried out at 37° C. in 96-well flat bottomed microtiter plates in a final volume of 250 μL. The reactions were followed by the characteristic absorption of NADH at 340 nm (εNADH=6.22 mM^−1 cm^−1) in a microplate reader (BioRad 680XR).
Site-directed mutagenesis of the mdh gene from E. coli was carried out as described in Example 2 using the primers listed in Table 5. Plasmid pET28-Ec-mdh was used as the template.
Mutant enzymes were expressed, purified and tested for OHB and oxaloacetate reductase activity as described in Example 1. […] The mutation R81A in Ec-Mdh was combined with additional changes in the protein sequence.

[3] = substrate: CC(=O)C(=O)O; test: OHB/pyruvate reductase assay, Ll-Ldh wild type; assay type: biochemical, Lactococcus lactis
From the text: as §1

[4] = substrate: CC(=O)C(=O)O; test: OHB/pyruvate reductase assay, Ll-LdhA Q85N; assay type: biochemical, Lactococcus lactis
Method: as §2
(§3) Site-directed mutagenesis of the L. lactis ldhA gene was carried out using the pET28-Ll-ldhA plasmid as the template. Point mutations to change the amino acid sequence were introduced by PCR (Phusion 1U, HF buffer 20% (v/v), dNTPs 0.2 mM, direct and reverse primers 0.04 μM each, template plasmid 30-50 ng, water) using the oligonucleotide pairs listed in Table 3. The genes mutated by PCR contained a new restriction site listed in Table 3 (introduced using silent mutations) in addition to the functional mutation to facilitate identification of mutated clones. The PCR products were digested by DpnI at 37° C. for 1 h to remove template DNA, and transformed into competent E. coli DH5α (NEB) cells. […]

[5] = substrate: O=C(O)C(=O)CCO; test: OHB/pyruvate reductase assay, Ll-LdhA Q85N; assay type: biochemical, Lactococcus lactis
Method: as §2, §3

[6] = substrate: CC(=O)C(=O)O; test: OHB/pyruvate reductase assay, Ll-LdhA Q85N I226V; assay type: biochemical, Lactococcus lactis
Method: as §2, §3

[7] = substrate: O=C(O)C(=O)CCO; test: OHB/pyruvate reductase assay, Ll-LdhA Q85N I226V; assay type: biochemical, Lactococcus lactis
Method: as §2, §3

[8] = substrate: CC(=O)C(=O)O; test: OHB/pyruvate reductase assay, Ec-LdhA; assay type: biochemical, Escherichia coli
From the text: as §1

[9] = substrate: O=C(O)C(=O)CCO; test: OHB/pyruvate reductase assay, Ec-LdhA; assay type: biochemical, Escherichia coli
From the text: as §1

[10] = substrate: CC(=O)C(=O)O; test: OHB/pyruvate reductase assay, Gs-Ldh; assay type: biochemical, Geobacillus stearothermophilus
From the text: as §1

[11] = substrate: O=C(O)C(=O)CCO; test: OHB/pyruvate reductase assay, Gs-Ldh; assay type: biochemical, Geobacillus stearothermophilus
From the text: as §1

B1: Escherichia coli (L)-malate dehydrogenase Ec-Mdh, wild type, SEQ ID NO: 2 (Escherichia coli K-12) (protein)
chain: MKVAVLGAAGGIGQALALLLKTQLPSGSELSLYDIAPVTPGVAVDLSHIPTAVKIKGFSGEDATPALEGADVVLISAGVARKPGMDRSDLFNVNAGIVKNLVQQVAKTCPKACIGIITNPVNTTVAIAAEVLKKAGVYDKNKLFGVTTLDIIRSNTFVAELKGKQPGEVEVPVIGGHSGVTILPLLSQVPGVSFTEQEVADLTKRIQNAGTEVVEAKAGGGSATLSMGQAAARFGLSLVRALQGEQGVVECAYVEGDGQYARFFSQPLLLGKNGVEERKSIGTLSAFEQNALEGMLDTLKKDIALGEEFVNK
notes: made in house; host or cells: E. coli BL21 (DE3) star
Q: With B1 as the protein, how does the Km [1] read?
A: 40 µM

B2: Escherichia coli malate dehydrogenase Ec-Mdh variant R81A M85Q I12V, SEQ ID No. 108 (Escherichia coli K-12; I12V/M85Q/R81A) (protein)
chain: MKVAVLGAAGGVGQALALLLKTQLPSGSELSLYDIAPVTPGVAVDLSHIPTAVKIKGFSGEDATPALEGADVVLISAGVAAKPGQDRSDLFNVNAGIVKNLVQQVAKTCPKACIGIITNPVNTTVAIAAEVLKKAGVYDKNKLFGVTTLDIIRSNTFVAELKGKQPGEVEVPVIGGHSGVTILPLLSQVPGVSFTEQEVADLTKRIQNAGTEVVEAKAGGGSATLSMGQAAARFGLSLVRALQGEQGVVECAYVEGDGQYARFFSQPLLLGKNGVEERKSIGTLSAFEQNALEGMLDTLKKDIALGEEFVNK
Q: With B2 as the protein, how does the Km [2] read?
A: 15000 µM

B3: Lactococcus lactis (L)-lactate dehydrogenase Ll-LdhA (Ll-Ldh), wild type, SEQ ID NO: 6 (Lactococcus lactis subsp. lactis Il1403) (protein)
chain: MADKQRKKVILVGDGAVGSSYAFALVNQGIAQELGIVDLFKEKTQGDAEDLSHALAFTSPKKIYSADYSDASDADLVVLTSGAPQKPGETRLDLVEKNLRITKDVVTKIVASGFKGIFLVAANPVDILTYATWKFSGFPKNRVVGSGTSLDTARFRQALAEKVDVDARSIHAYIMGEHGDSEFAVWSHANVAGVKLEQWFQENDYLNEAEIVELFESVRDAAYSIIAKKGATFYGVAVALARITKAILDDEHAVLPVSVFQDGQYGVSDCYLGQPAVVGAEGVVNPIHIPLNDAEMQKMEASGAQLKAIIDEAFAKEEFASAVKN
Q: For B3, which Km [3] is on record?
A: 2700 µM

B4: Lactococcus lactis (L)-lactate dehydrogenase A Ll-LdhA variant Q85N, SEQ ID No. 30 (Lactococcus lactis subsp. lactis Il1403; Q85N) (protein)
chain: MADKQRKKVILVGDGAVGSSYAFALVNQGIAQELGIVDLFKEKTQGDAEDLSHALAFTSPKKIYSADYSDASDADLVVLTSGAPNKPGETRLDLVEKNLRITKDVVTKIVASGFKGIFLVAANPVDILTYATWKFSGFPKNRVVGSGTSLDTARFRQALAEKVDVDARSIHAYIMGEHGDSEFAVWSHANVAGVKLEQWFQENDYLNEAEIVELFESVRDAAYSIIAKKGATFYGVAVALARITKAILDDEHAVLPVSVFQDGQYGVSDCYLGQPAVVGAEGVVNPIHIPLNDAEMQKMEASGAQLKAIIDEAFAKEEFASAVKN
Q: What does the source list for B4?
A: Km [4]: 22100 µM; Km [5]: 29200 µM

B5: Lactococcus lactis (L)-lactate dehydrogenase A Ll-LdhA variant Q85N I226V (Q85NI226V), SEQ ID No. 32 (Lactococcus lactis subsp. lactis Il1403; I226V/Q85N) (protein)
chain: MADKQRKKVILVGDGAVGSSYAFALVNQGIAQELGIVDLFKEKTQGDAEDLSHALAFTSPKKIYSADYSDASDADLVVLTSGAPNKPGETRLDLVEKNLRITKDVVTKIVASGFKGIFLVAANPVDILTYATWKFSGFPKNRVVGSGTSLDTARFRQALAEKVDVDARSIHAYIMGEHGDSEFAVWSHANVAGVKLEQWFQENDYLNEAEIVELFESVRDAAYSIVAKKGATFYGVAVALARITKAILDDEHAVLPVSVFQDGQYGVSDCYLGQPAVVGAEGVVNPIHIPLNDAEMQKMEASGAQLKAIIDEAFAKEEFASAVKN
Q: B5 was tested. Which Km [6] did it give?
A: 1400 µM

Q: What about the Km [7] of the same protein?
A: 3300 µM

B6: Escherichia coli (D)-lactate dehydrogenase Ec-LdhA, SEQ ID NO: 4 (Escherichia coli K-12) (protein)
chain: MKLAVYSTKQYDKKYLQQVNESFGFELEFFDFLLTEKTAKTANGCEAVCIFVNDDGSRPVLEELKKHGVKYIALRCAGFNNVDLDAAKELGLKVVRVPAYDPEAVAEHAIGMMMTLNRRIHRAYQRTRDANFSLEGLTGFTMYGKTAGVIGTGKIGVAMLRILKGFGMRLLAFDPYPSAAALELGVEYVDLPTLFSESDVISLHCPLTPENYHLLNEAAFEQMKNGVMIVNTSRGALIDSQAAIEALKNQKIGSLGMDVYENERDLFFEDKSNDVIQDDVFRRLSACHNVLFTGHQAFLTAEALTSISQTTLQNLSNLEKGETCPNELV
notes: as for B1
Q: With B6 as the protein, how does the Km [8] read?
A: 1800 µM

Q: What about the Km [9] of the same protein?
A: 4800 µM

B7: Geobacillus stearothermophilus (L)-lactate dehydrogenase Gs-Ldh, SEQ ID NO: 10 (Geobacillus stearothermophilus) (protein)
chain: MKNNGGARVVVIGAGFVGASYVFALMNQGIADEIVLIDANESKAIGDAMDFNHGKVFAPKPVDIWHGDYDDCRDADLVVICAGANQKPGETRLDLVDKNIAIFRSIVESVMASGFQGLFLVATNPVDILTYATWKFSGLPHERVIGSGTILDTARFRFLLGEYFSVAPQNVHAYIIGEHGDTELPVWSQAYIGVMPIRKLVESKGEEAQKDLERIFVNVRDAAYQIIEKKGATYYGIAMGLARVTRAILHNENAILTVSAYLDGLYGERDVYIGVPAVINRNGIREVIEIELNDDEKNRFHHSAATLKSVLARAFTR
notes: as for B1
Q: For B7, which Km [10] is on record?
A: 1200 µM

Q: What about the Km [11] of the same protein?
A: 1300 µM

From US11505811B2, “Method for the preparation of 2,4-dihydroxybutyrate” (ADISSEO FRANCE S.A.S., priority 2012, dated 2022)
